We go through eight molecules from US20250313632A1.

Numbering of substitutions follows the chain as printed.

Assay [1] has as its target human B7-H3 protein (human) (UniProt Q5ZPR3). Kind of assay: Octet (BLI) epitope binning on captured human B7-H3; competitor 72D1D11. In general terms: In BLI a coated tip is dipped into the sample, and binding shifts an interference pattern.
For assay [2] the target is unchanged. Kind of assay: Octet (BLI) epitope binning on captured human B7-H3; competitor AHP05562.
Assay [3] has the same target. Kind of assay: Octet (BLI) epitope binning on captured human B7-H3; competitor AHP06345.
For assay [4] the target is unchanged. Kind of assay: Octet (BLI) epitope binning on captured human B7-H3; competitor CA84D.
The target in assay [5] is human B7-H3 expressed on A375 tumor cells (human) (UniProt Q5ZPR3). Kind of assay: flow cytometry on A375.S2 cells, MFI(647); unit from the axis Conc (nM).
For assay [6] the target is unchanged. In words: flow cytometry on A375 cells, MFI(PE); unit from the axis Conc (nM). On the technique in general: Flow cytometry measures light scatter and fluorescence of single cells or particles in a stream.
Assay [7] has the same target. Kind of assay: flow cytometry on A375 cells, MFI(647); unit from the axis Conc (nM); fit value of a flat curve.
Assay [8] has as its target human B7-H3 (4Ig) protein (his tag) (human) (UniProt Q5ZPR3). In words: SPR (Biacore T200), antibody captured on Protein A chip, B7-H3 injected, 1:1 model. For orientation: In SPR one partner is held on a chip, and binding of the other changes the refractive index at the surface.
The target in assay [9] is human B7-H3 expressed on A375 tumor cells (human) (UniProt Q5ZPR3). In words: flow cytometry on A375 cells, MFI(PE); unit from the axis Conc (nM). This is another data set of the same source.
For assay [10] the target is unchanged. The description is as above. The source holds these as a separate data set.
For assay [11] the target is unchanged. In words: flow cytometry on A375 cells, MFI(PE); unit from the axis Conc(nM).

B1: 429H9F10 (antibody, V domains shown)
VH: QIQLVQSGPELKKPGETVKISCKASGYTFTYYGLNWVKQAPGKGLRWMGWINTSSGVPTYADDFKGRFAISLESSASTVFLEISNLKNEDTAAYFCAKDDGYFYTMDHWGQGTSVTVSS
VL: DIVMTQPPLSLPVSLGDQASISCRSSQSLVHNNGKTYLHWYLQKPGQSPKLLIYKVSNRFSGVPDRFSGSGSGTDFTLKISRVETEDLGVYFCSQSTQVPWTFGGGTKLEIK
On to B1, for which the inhibition ratio in [1] is 98.9%; in assay [2], -22.4%; in assay [3], -11.5%; in assay [4], -8%. Moreover, the EC50 in [5] came out at 0.7 nM.

B2: 72D1D11-p1 (antibody, V domains shown)
VH: QIQLVQSGPELKKPGETVKISCKASGYTFTNLGLNWVKQAPGKGLKWMGWINTAGGQPTYAEDFKGRCAFSLETSASTAYLQINNLKNEDTATYFCARDDGYYYTMDYWGQGTSVTVSS
VL: B1 VL with P7T, N32S, G34A, T85A, Q98H
B2: the EC50 in assay [6] amounted to 0.49 nM.

B3: 72D1D11-p2 (antibody, V domains shown)
VH: B2 VH
VL: B1 VL with P7T, N32S, N33Q, T85A, Q98H
For the molecule B3, the EC50 in assay [6] stood at 0.54 nM.

B4: 72D1D11-z3p6 (antibody, V domains shown)
VH: QVQLVQSGSELKKPGASVKVSCKASGYTFTNLGLNWVRQAPGQGLEWMGWINTAGGQPTYAEDFKGRFVFSLDTSVSTAYLQISSLKAEDTAVYYCARDRGYYYTMDYWGQGTTVTVSS
VL: DIVMTQSPLSLPVTPGEPASISCRSSQSLVHSNAKTYLHWYLQKPGQSPQLLIYKVSNRFSGVPDRFSGSGSGTDFTLKISRVEAEDVGVYYCSQSTHVPWTFGGGTKLEIK
Turning to B4, the EC50 in [7] came out at 20900 nM.

B5: 72D1D11-z3p7 (antibody, V domains shown)
VH: B4 VH with R100L
VL: B4 VL
B5 showed a concentration giving a half-maximal response (EC50) in assay [7] of 115000 nM.

B6: 81C8A1 (antibody, V domains shown)
VH: QVTLKESGPGILQPSQTLSLTCSFSGFSLSTSGMGVSWIRQPPGKGLEWLAHIYWDDDRRYNPSLKSRLTISRDTSRNQVFLQITTVDTADTATYYCARSPYGSEAYWGQGTLVIVSA
VL: QIVLSQSPTILSAFPGEKVTMTCRASSSVSFIQWYQQKSGSSPKPWIYSPSNLASGVPTRFSGSGSGTSYSLTIGRVEAEDAATYYCQQWSSYPWTFGGGTKVEIK
Molecule B6 had a Kd in assay [8] of 0.196 nM. Moreover, the koff in assay [8] was 0.000111 s⁻¹. This molecule also gave a kon in [8] of 567000 M⁻¹ s⁻¹. Besides, the EC50 in [9] was determined as 0.25 nM; in assay [10] it was 0.17 nM. The inhibition ratio is 95.4% in assay [1], 90.6% in assay [2], -12.1% in assay [3] and -6.3% in [4].

B7: 312E1E2 (antibody, V domains shown)
VH: QVQLQQSGPELVRPGVSVKISCKGSGYTFTDYAMHWVKQSHAKSLEWIGIVSTHYGNTNYNQNFKGKATMTVDKSSSTVYMELARLTSEDSAIYYCARSEGLRLDWFAHWGQGTLVTVSA
VL: DIQMTQSPASLSASVGEIVTITCRASENIYSYLAWYQQKQGKSPHLLVYNAKTLAEGVPSRFSGSGSGTQFSLKISRLQPEDFGSYYCQNHYVFPFTFGSGTKLEIK
With B7, the inhibition ratio was -32.6% in [1], -24.4% in [2], 90% in [3] and -18.3% in assay [4]. In assay [5], this molecule yielded an EC50 of 0.19 nM.

B8: AHP05564 (antibody, V domains shown)
VH: EVQLVETGGGVVQPGRSLRLSCAASGFTFSSSGMHWVRQAPGKGLEWVAVISYDVTNKYYVDSVKGRFTISRDNSENTLYLQMNSLRAEDTGVYYCVRDGGPRWLGWYFDLWGRGTLVTVSS
VL: NIQMTQSPSSQSASVGDRVTITCRANQAIANSLAWYQQKPGKAPKLLLFGTSLLHSGVPSRFSGSGSGTEYTLTISSLQPDDFGTYYCQQYFSFPRTFGQGTQVDVY
In assay [8], B8 displayed a Kd of 0.52 nM, a koff of 0.000862 s⁻¹ and a kon of 1.66e+06 M⁻¹ s⁻¹. Besides, the inhibition ratio in assay [2] was -3.53%. Further, in assay [3], the inhibition ratio was 5.92%. Moreover, the inhibition ratio in [4] amounted to 80.1%. This molecule came in with a concentration for a half-maximal effect (EC50) in assay [11] of 2.4 nM.

One may read the EC50 as the midpoint of the concentration-response curve. What is called Kd is the concentration at which binding is half-saturated. The low end stands for higher affinity, the high end for lower affinity. By koff is commonly meant a measure of how fast the partners let go of each other. A lower koff goes with slow dissociation. A word on the kon: it is the rate constant with which the complex forms. Low readings indicate slow association, high ones fast association.
